Patent US20220112288A1 (published 2022)
Residue numbers refer to the chain shown, from its start.

B1: 75110_11D03A (antibody, V domains shown)
VH: EVQLVESGGGLVQPGGSLRLSCAASGFTFSSYWMSWVRQAPGKGLEWVANINQDGNEKYYVDSVKGRFTISRDNAKNSLFLQMNSLRAEDTAVYYCAREGGQWLALDYWGQGALVTVSS
VL: DIQMTQSPSSVSASVGDRVTITCRASQGISSWLAWYQQKPGKAPKFLISGASSLQSGVPSRFSGSGSGTDFTLTISSLQPEDFATYYCQQANSFPWTFGQGTKVEIK
notes: Tested here as non-clonal hybridoma supernatant from AlivaMab Mouse Kappa mice (detected with anti-mouse Fc and anti-human kappa)
B2: 75110_01J09A (antibody, V domains shown)
VH: B1 VH with A23V, I51T, N52K, Q53E, N56S, E57D, S71C, F80Y, A113T
VL: B1 VL with T22N, K45N, F46L, S49F, S67F, T72S, S76T, S77T, Y87H
notes: as for B1
B3: 75110_05L07A (antibody, V domains shown)
VH: B1 VH with N56S, E57D, A75V, F80Y, M83I, A105T, A113T
VL: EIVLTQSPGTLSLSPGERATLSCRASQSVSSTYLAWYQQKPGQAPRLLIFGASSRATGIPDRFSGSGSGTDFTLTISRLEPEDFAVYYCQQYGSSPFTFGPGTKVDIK
notes: as for B1
B4: 75110_09N20A (antibody, V domains shown)
VH: B1 VH with Q53E, N56S, F80Y, A97V, A113T
VL: B1 VL with F46L, S49Y, G50A, R61S, S76N, E105A
notes: as for B1
B5: 75110_07H07A (antibody, V domains shown)
VH: B1 VH with L4V, N52K, Q53E, D54E, N56S, F80Y, A97V, A113T
VL: B1 VL with A13G, F46L, S49F, E105Q
notes: as for B1
B6: 75110_04K10A (antibody, V domains shown)
VH: B1 VH with N56S, F80Y, M83L, V93M, A105S, A113T
VL: B1 VL with F46V, S49Y, A51V, L54F, T72I
notes: as for B1
B7: 75110_01A06A (antibody, V domains shown)
VH: B1 VH with Q53E, F68L, F80Y, Y95F, A105S
VL: B1 VL with T20S, F46I, S49Y
notes: as for B1
B8: 75110_12H17A (antibody, V domains shown)
VH: B1 VH with S31D, N52K, Q53E
VL: B1 VL with S63T
notes: as for B1
B9: 75110_09G15A (antibody, V domains shown)
VH: B1 VH with S31D, N56S, Y60S, F80Y, V93I, Y94F, A113T
VL: B1 VL with F46L, S49Y, S76N, A84T, S93I
notes: as for B1
B10: 75110_03D16A (antibody, V domains shown)
VH: B1 VH with N56G, F80Y, A97V, A113T
VL: B1 VL with A34T, S49Y, G50A, S67F
notes: as for B1
B11: 75110_12H19A (antibody, V domains shown)
VH: B1 VH with K43Q, Q53E, Y60H, F68L, F80Y, A88G, E89V, Y95F
VL: B1 VL with T20S, F46L, S49Y, S53G
notes: as for B1
B12: 75110_10L22A (antibody, V domains shown)
VH: EVQLVESGGGLVQPGGSLRLSCAASGFTFSSYDMHWVRQATGKGLEWVSTIGTAGDTYYPGSVKGRFTISRENAKNSLYLQMNGLRAGDTAVYYCARGNYFYYGVDVWGQGTTVTVSS
VL: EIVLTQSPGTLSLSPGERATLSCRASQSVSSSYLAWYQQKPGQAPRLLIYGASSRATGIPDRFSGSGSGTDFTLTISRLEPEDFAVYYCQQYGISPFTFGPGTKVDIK
notes: as for B1
B13: 75110_04B08A (antibody, V domains shown)
VH: QVQLVESGGGVVQPGRSLRLSCTASGFNFINYGIHWVRQAPGKGLEWVTIIWYDGSKKYYADSVKGRFAISRDNSKNTLYLQMNSLRAEDTAVYYCAREDDWNDGLAYWGQGTLVTVSS
VL: AIQMTQSPSSLSASVGDRVTITCRASQDIRNDLGWYQQKPGKAPNLLIYAASNLQSGVPSRFSGSGSGTDFTLTISSLQPEDFATYYCLQDSNYPRTFGQGTKVEIK
notes: as for B1

biological target: T1, human CD4 on the surface of SKW3 cells or human PBMCs (human, UniProt P01730 26-458); test: FACS confirmation, supernatant on human PBMCs, anti-mouse Fc A647
T1 construct: whole, on cells; SKW3 CD4 knockout cells served as the negative cell line; also called hCD4; SKW3 WT
Description: (§1) FACS Confirmation screens were performed for primary screening positive hybridomas using human PBMCs in addition to SKW3/SKW3 CD4 KO cell lines. PBMCs were thawed and resuspended to 8E6/mL in FACS buffer. […] PBMCs were added to the 96 well plates (25 μL/well) and incubated at 4° C. for 30 minutes. […] Cells were washed twice before acquired by IQUE3 Flow Cytometer and analyzed with FORECYT software (Sartorius). Primary parameter used to assess confirmation was CD4 positive percent of viable cells. […] SKW3 gMFI binding was used as secondary parameter to assess confirmation.

Binder | PBMCs, anti-mFc 647 CD4+ Percent Bound of Viable [%]
B1 | 29
B2 | 31
B3 | 29
B4 | 33
B5 | 27
B6 | 33
B7 | 31
B8 | 29
B9 | 28
B10 | 31
B11 | 27
B12 | 31
B13 | 29

biological target: T1, human CD4 on the surface of SKW3 cells …; test: FACS confirmation, supernatant on human PBMCs, anti-mouse Fc A647, CD4+ gate
Description: as §1

Binder | PBMCs, anti-mFc 647 CD4+ gate - RL1 Binding
B1 | 190000
B2 | 321000
B3 | 181000
B4 | 287000
B5 | 234000
B6 | 346000
B7 | 321000
B8 | 264000
B9 | 304000
B10 | 319000
B11 | 244000
B12 | 283000
B13 | 274000

biological target: T1, human CD4 on the surface of SKW3 cells …; test: FACS confirmation, supernatant on SKW3 WT cells, anti-mouse Fc A647; background gMFI 3300
Description: as §1

Binder | SKW3 WT anti-mFc 647, gMFI [gMFI]
B1 | 21100
B2 | 32300
B3 | 16300
B4 | 24800
B5 | 34300
B6 | 36700
B7 | 32300
B8 | 18000
B9 | 22300
B10 | 36000
B11 | 22800
B12 | 27600
B13 | 22600

biological target: T1, human CD4 on the surface of SKW3 cells …; test: FACS confirmation, supernatant on SKW3 WT cells, anti-human kappa FITC; background gMFI 2500

Binder | SKW3 WT anti-hu Kappa FITC, gMFI [gMFI]
B1 | 4000
B2 | 5930
B3 | 5130
B4 | 5880
B5 | 8510
B6 | 6710
B7 | 5930
B8 | 5360
B9 | 5810
B10 | 7600
B11 | 6550
B12 | 7020
B13 | 6160

biological target: T1, human CD4 on the surface of SKW3 cells …; test: FACS primary screen, non-clonal hybridoma supernatant, SKW3 vs SKW3 CD4 KO cells, anti-mouse Fc A647
Description: (§2) FACS cell binding. αCD4 antibody producing hybridomas were identified by cell surface CD4 binding using FACS. For primary screening SKW3 (human T-ALL) was used as the CD4 positive cell line and SKW3 CD4 knockout (KO) as the negative cell line, respectively. SKW3 KO cells were labeled with Tag-it Violet (BioLegend) at RT for 15 min. After removing extra dye by washing cells with FACS buffer (1% BSA/1 mM EDTA/0.05% NaN3 in PBS) equal number of SKW3 and labeled SKW3 CD4 KO cells were combined, washed, and resuspended in FACS buffer at 8E6 cells/6 mL. […] Cells (˜20K/15 μL/well) were added to the supernatant and incubated at 4° C. for 30 minutes. […] Cells were washed twice before acquired by IQUE3 Flow Cytometer and analyzed with FORECYT software (Sartorius). Positive wells were selected with the following criteria: Over 2-fold selective binding to SKW3 cell line relative to SKW3 CD4 KO with over 10% signal above background binding with anti-human Kappa. Hybridomas from primary screening positive wells were transferred to 96 well plates.

Binder | SKW3 WT vs KO anti-mFc-647 [ratio]
B1 | 2.6
B2 | 7.5
B3 | 3.9
B4 | 5.4
B5 | 5.7
B6 | 5
B7 | 7.5
B8 | 4
B9 | 4.8
B10 | 6.5
B11 | 5.2
B12 | 3.4
B13 | 6.7

biological target: T1, human CD4 on the surface of SKW3 cells …; test: FACS primary screen, non-clonal hybridoma supernatant, SKW3 vs SKW3 CD4 KO cells, anti-human kappa FITC
Description: as §2

Binder | SKW3 WT vs KO anti-hKappa-FITC [ratio]
B1 | 1
B2 | 2.4
B3 | 1.5
B4 | 2.2
B5 | 2.3
B6 | 1.5
B7 | 2.4
B8 | 2
B9 | 2
B10 | 2.8
B11 | 2.4
B12 | 2.1
B13 | 2.3

biological target: T1, human CD4 on the surface of SKW3 cells …; test: FACS binning on SKW3 cells; competitor OKT4-Alexa Fluor 488 (its signal read); background 2163, max binding 8200
Description: (§3) αCD4 containing hybridoma supernatants were binned against three comparator antibodies by FACS using SKW3 cells, which endogenously express human CD4 protein. Briefly, SKW3 cells were incubated with saturated hybridoma supernatant for 30 minutes at 4° C.

Binder | OKT4 A488 signal
B1 | 4180
B2 | 2140
B3 | 3120
B4 | 2700
B5 | 2060
B6 | 2760
B7 | 2140
B8 | 4020
B9 | 2990
B10 | 2280
B11 | 2620
B12 | 2850
B13 | 3170

biological target: T1, human CD4 on the surface of SKW3 cells …; test: FACS binning on SKW3 cells; competitor RPA-T4-PE-Dazzle 594 (its signal read); background 783, max binding 15000
Description: as §3

Binder | RPA-T4-PE-Dazzle 594 signal
B1 | 13100
B2 | 14700
B3 | 15900
B4 | 14700
B5 | 14900
B6 | 9800
B7 | 14700
B8 | 14800
B9 | 14800
B10 | 12300
B11 | 14600
B12 | 15000
B13 | 14900

biological target: T2, huCD4-HIS (human, UniProt P01730 26-390, limits assumed); test: ELISA binning; competitor ibalizumab; 100 ng/mL huCD4-HIS, anti-HIS HRP detection; background 45, max binding 3000000
T2 construct: not shown: HIS tag

Binder | Ibalizumab ELISA binning signal
B1 | 1.63e+06
B2 | 1.26e+06
B3 | 2.57e+06
B4 | 1.76e+06
B5 | 2.11e+06
B6 | 1.13e+06
B7 | 1.26e+06
B8 | 2.2e+06
B9 | 1.99e+06
B10 | 663000
B11 | 1.74e+06
B12 | 1.88e+06
B13 | 1.95e+06

biological target: T1, human CD4 on the surface of SKW3 cells …; test: FACS binning on SKW3 cells; competitor OKT4a, anti-human A647 secondary (its signal read); background 5000, max binding 35000
Description: as §3

Binder | OKT4a anti-hu A647 Secondary signal
B1 | 43700
B2 | 43700
B3 | 37400
B4 | 46600
B5 | 39400
B6 | 43100
B7 | 43700
B8 | 42000
B9 | 44600
B10 | 35900
B11 | 34400
B12 | 45900
B13 | 43400
